The target in experiment [1] is T1, Human CD39-His protein (CD9-H52H4, ACRO Biosystems) (human, UniProt P49961 38-478).
T1 construct: Purchased protein; also called human CD39-His antigen; human CD39 protein; not shown: His tag
T1 sequence (looked up): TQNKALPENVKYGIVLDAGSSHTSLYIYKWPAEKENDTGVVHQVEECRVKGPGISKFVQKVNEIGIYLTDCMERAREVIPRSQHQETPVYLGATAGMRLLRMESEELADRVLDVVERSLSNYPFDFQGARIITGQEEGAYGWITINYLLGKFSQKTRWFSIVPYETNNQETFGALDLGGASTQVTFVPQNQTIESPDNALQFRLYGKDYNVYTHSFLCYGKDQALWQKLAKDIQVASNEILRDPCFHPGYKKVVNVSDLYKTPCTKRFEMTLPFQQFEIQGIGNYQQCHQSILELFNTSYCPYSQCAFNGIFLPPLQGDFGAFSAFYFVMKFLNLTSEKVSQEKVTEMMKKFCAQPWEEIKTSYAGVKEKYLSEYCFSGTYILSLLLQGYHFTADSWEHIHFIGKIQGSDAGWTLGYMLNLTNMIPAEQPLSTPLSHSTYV
Description: BLI (Fortebio), antibody on AHC probe, human CD39-His in solution. Background: Biolayer interferometry detects binding as a change in optical thickness at a sensor tip.

For experiment [2], the target named is T1, Human CD39-His protein (CD9-H52H4, ACRO …). The experiment is described as above. This is another data set of the same source.

Like-named read-outs stand apart in the source and are kept apart here.

B1: control antibody H5L5 (Patent CN112714768A) (antibody, V domains shown)
VH: QVQLVQSGAEVKKPGASVKVSCKASGYNLKDTFLHWVRQAPGQGLEWMGRIDPANGNIKYDPKFQGRVTITADTSANTAYMELISLRSEDTAVYYCANSPYYYGSGYRIFDVWGQGTTVTVSS
VL: QIVLTQSPATLSLSPGERATLSCSAFSSVNYMHWYQQKPGQAPRLLIYTTSNLASGIPTRFSGSGSGTSYTLTISSLEPEDFAVYYCQQRSTYPFTFGQGTKLEIKR
notes: Anti-CD39 control antibody; also called H5L5 control antibody
As for B1, in experiment [1], binding was characterised by a dissociation constant (Kd) of 1.28 nM; the koff – broadly, the first-order rate constant of dissociation – stood at 0.000408 s⁻¹; the kon – broadly, a measure of how fast the partners come together – was determined as 320000 M⁻¹ s⁻¹. Also, in experiment [2], the Kd – broadly, the concentration at which binding is half-saturated – was 0.802 nM; the koff was 0.000168 s⁻¹; the kon came to 210000 M⁻¹ s⁻¹.

The record behind these values is patent EP4722247A1 (Oricell Therapeutics Co., Ltd., dated 2026).
